Measured values as given in EP1514558A1.

Biological target: recombinant MARK2, expressed in E. coli (Rattus norvegicus (Rat)) (UniProt O08679)
Assay: cell-based or functional assay

Chain of recombinant MARK2, expressed in E. coli (Rattus norvegicus (Rat)) (O08679 1-722, tags left off): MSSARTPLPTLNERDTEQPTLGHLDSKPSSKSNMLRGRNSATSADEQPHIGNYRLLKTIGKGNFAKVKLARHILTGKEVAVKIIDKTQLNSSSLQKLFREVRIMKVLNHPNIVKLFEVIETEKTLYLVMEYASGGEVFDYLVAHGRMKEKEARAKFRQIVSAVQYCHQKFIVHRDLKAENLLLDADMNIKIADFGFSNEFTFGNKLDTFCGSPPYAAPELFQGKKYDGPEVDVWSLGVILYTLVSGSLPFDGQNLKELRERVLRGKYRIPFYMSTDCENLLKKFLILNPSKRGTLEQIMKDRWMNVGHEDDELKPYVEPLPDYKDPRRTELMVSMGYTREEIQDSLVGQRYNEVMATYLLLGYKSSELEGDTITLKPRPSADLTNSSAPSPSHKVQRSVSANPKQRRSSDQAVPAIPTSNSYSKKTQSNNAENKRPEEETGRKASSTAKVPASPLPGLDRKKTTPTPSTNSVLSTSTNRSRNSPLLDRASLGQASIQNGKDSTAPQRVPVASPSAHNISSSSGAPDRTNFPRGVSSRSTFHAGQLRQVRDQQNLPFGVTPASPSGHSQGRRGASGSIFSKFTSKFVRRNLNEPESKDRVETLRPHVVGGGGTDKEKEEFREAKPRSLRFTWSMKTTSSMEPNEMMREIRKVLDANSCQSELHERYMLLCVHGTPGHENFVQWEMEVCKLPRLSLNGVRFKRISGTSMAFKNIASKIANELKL

Substance	activation of MARK2 by fraction 14 [fold]	activation of MARK2 (Fig. 4B) [fold]
MARK-activating factor (MAF) purified from porcine brain	10	
recombinant MARKK (His10-tagged at the N-terminus), expressed in Sf9 cells (from UniProt O88664 1-1001) (enzyme)		10
